Tests used:
[1] = target: H7N9病毒的血凝素HA (H7N9 influenza virus); assay: ELISA of 293F transfection supernatant (well B, supernatant)
[2] = target: H7N9病毒的血凝素HA (H7N9 influenza virus); assay: ELISA of 293F transfection supernatant (well C, supernatant)
[3] = target: H7N9病毒的血凝素HA (H7N9 influenza virus); assay: ELISA of 293F transfection supernatant (well A, supernatant)

B1: 抗H7N9全人源单克隆抗体8E17 (antibody, V domains shown)
VH: QVQLVESGGGVVQPGRSLRLSCAASGFIFSNYGMHWVRQAPGRGLEWVAVIWSDGTTTYYADSFKGRFTISSDNSKNTVYLQMNSLRADDSAIYYCARGDLDVVQVAAVTKLWDYWGQGTLVTVSS
VL: QSVLTQPPSASGSLGRSVTISCTGTSSDVGGYNYVSWYQQHPGKVPKLLVYEVTKRPSGVPDRFSGSKSGNTASLTVSGLQAEDEADYYCSSYAVSNNFVFGTGTKLTVTV
- absorbance at 450 nm (450) [1]: 3.12 OD450
- absorbance at 450 nm (450) [2]: 2.96 OD450
- absorbance at 450 nm (450) [3]: 3 OD450
